According to patent publication US20230067757A1 (NOVAROCK BIOTHERAPEUTICS, published 2023):
Substitutions are numbered along the chain they refer to.

B1: Hu-13 (antibody, V domains shown)
VH: EVQLLESGGGLVQPGGSLRVACAASGFPLRSYAMSWVRQAPGKGLEWVSVTSGSGGSTYYADSVKGRFTISRDNSKSTVYLQMNSLRAEDTAVYYCAKDRGYDILTGYYDYFYGMDVWGQGTTVTVSS
VL: DIQMTQSPSSLSASVGDRVTITCRASQGIRNDLGWFQQKPGKAPKRLIYAASSLQSGVPSRFSGSGSGTEFTLTISSLQPEDFATYYCLQHNSYPYTFGQGTKLEIK
B2: Hu-11 (antibody, V domains shown)
VH: QVHLVQSGAEVKKPGASVKVSCKASGYTFTSYYIHWVRQAPGQGLEWMGIINPSGGNTIYAQKFQGRVTMTRDTSTTTVYVELSSLRSEDTAVYYCARDHYDILTGYYPLYYGMDVWGQGTTVTVSS
VL: SYELTQPLSVSVALGQTARITCGGNNIGSKNVHWYQQKPGQAPVLVIYRDSNRPSGIPERFSGSKSGNTATLTISRAQAGDEADYYCQVWDSSTAVFGGGTQLTAL
B3: Hu-1 (antibody, V domains shown)
VH: QVQLVESGGGVVQPGRSLRLSCAASGFTFSNYGMYWVRQAPGKGLEWVAVIWYDGSNKNYADSVKGRFTISRDNSKNTLNLQMNSLRAEDTAVYYCARRGYDILTGYDYYGMDVWGQGTTVTVSA
VL: QTVVTQEPSFSVSPGGTVTLTCGLSSGSVSTSYYPSWYQQTPGQAPRTLIYRTNTRSSGVPDRFSGSILGNKAALTISGAQAPDESNYYCVLYMGSGIWVFGGGTKLTVL
B4: Hu-8 (antibody, V domains shown)
VH: QVQLVESGGGVVQPGRSLRLSCAASGFTFSSYGMHWVRQAPGKGLEWVAVIWYDGSNKKYADSVKGRFTISRDNSKNTLYLQMNSLRAEDTAVYYCARRYDVLTAYPYYFYYNMDVWGPGTTVTVSS
VL: B3 VL with S25N, R52S, S78T, P83D, N87D
B5: Hu-4 (antibody, V domains shown)
VH: B3 VH with N31F, Y35H, A61V, N80Y, G100N, Y107R, A125S
VL: B3 VL with S25N, R52S, S78T, P83D, E85D, N87D
B6: Hu-7 (antibody, V domains shown)
VH: EVQLLESGGGLVQPGGSLRLSCAASGFTFSSYVMSWVRQAPGKGLEWVSTISGSGGSTYYADSVKDRFTISRDNSKNTLYLQMNSLRAEDTAVYYCGKPLLGGTGLWDYWGQGTLVTVSS
VL: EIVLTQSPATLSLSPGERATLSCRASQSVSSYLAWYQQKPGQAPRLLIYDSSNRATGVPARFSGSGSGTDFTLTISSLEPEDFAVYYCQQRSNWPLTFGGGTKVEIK
B7: Hu-12 (antibody, V domains shown)
VH: EVRLLESGGGLVQPGGSLRLSCIASGFTFSSYVMSWVRQAPGKGLEWVSGISGSGGSTYYADSVKGRFTISRDNSKNTLYLQISSLRAEDTAVYYCTKAPTLWWFFDLWGRGTLVTVSS
VL: DIQVTQSPSFLSASVGDRVTITCRASQGIRSYLAWYQQKPGKAPKLLIYAASTLQSGVPSRFSGSGSGTEFTLTISSLLPEDFATYYCQQLNSYPLTFGGGTKVEIK
B8: Hu-10 (antibody, V domains shown)
VH: EVQLSESGGALVQPGESLRLSCAASGFTFSSYAMTWVRQAPGKGLEWVSSLSGSGRSTYYAASIKGRFTISRDNSKNTLYLQMSSLRAEDTAIYYCAKSLSYYHYYFDYWGQGTLVTVSS
VL: DIQLTQSPSFLSASVGDRVPITCRASQDISNYLAWYQQKPGKAPKLLIYSASTLQSGVPSRFSGSGSGTEFTLTISSLQPEDFASYHCQQVKTYPLTFGGGTKVEIK
B9: Hu-9 (antibody, V domains shown)
VH: B8 VH with S5L, A10G, E16G, Y32F, I64M, S84N, S119T
VL: B8 VL with D28G, Y32F, K45E, Y49H, S77N, E81Q, S85T, H87Y, K92N, T93S
B10: Ms19 (antibody, V domains shown)
VH: EVQLQQSGPELVKPGASVKMSCKASGYTFTSYVIHWVKQKPGQGLEWIGYINPYNDGSKYNEKFKGKATLTSDKSSSTAYMELSSLTSEDSAVYYCAREGYGKRNALDYWGQGTSVTVSS
VL: DIVMTQSPSSLSVSAGERVTMSCKSSQSLLNSGNQKNYLAWYQQKPGQPPKLLIYGASTRESGVPDRFTGSGSGTDFTLIISSVQVEDLAVYYCQNDHFYPLTFGAGTKLELK
B11: Ms18 (antibody, V domains shown)
VH: QVQLKESGPGLVAPSQSLSITCTVSGFSLISYGVHWVRQPPGKGLEWLGVIWAGGNTNYNSALMSRLSISKDNSKSQVFLKMNSLQTDDTAMYYCARVYYGNSFDYWGQGTTLTVSS
VL: DIVMTQSPSSLTVTAGEKVTMSCKSSQSLLNSGNQKNYLTWYQQKPGQPPKLLIYWASTRQSGVPDRFTGSGSGTDFSLTISSVQAEDLAVYYCHNDYTYPLTFGAGTKLELK
B12: Ms20 (antibody, V domains shown)
VH: EIQLQQSGPELMKPGASVKISCKASGYSFTSYYMHWVKQSHGKSLEWIGYFDPYNGGTNYNQKFKGKATLTADKSSSTAYMHLSSLTSEDSAVYYCACYRFFAVWGAGTTVTVSS
VL: B11 VL with Q61E, S78T, H95Q, T99S
B13: Ms21 (antibody, V domains shown)
VH: DVQLVESGGGLVQPGGSRKLSCAASGFTFSTFGMHWVRQAPEKGLEWVAFINGDSSSIYYADTVKGRFTISRDNPKNILFLQMTSLRSEDTAMYYCARFARGNSFDYWGQGTTLTVSS
VL: B11 VL with L30F, G47W, Q61E, S78T, S82T, A86T, H95Q, N96I, D97G
B14: Ms22 (antibody, V domains shown)
VH: QVQLKESGPGLVAPSQSLSITCTVSGFSLTSNGVHWVRQPPGKGLEWLGVIWAGGSTNYNSALMSRLSISKDNSKSQVFLKMNSLQTHDTAMYYCARDKYDGTGFDYWGQGTTLTVSS
VL: QIVLTQSPAIMSASPGEKVTMTCSASSSVSNMYWYQQKPGSSPRLLIYDTSNLASGVPVRFSGSGSGTSYSLTISRMEAEDAATYYCQQWSSYPYTFGGGTKLEIK

target: human claudin 18 isoform 2 (claudin 18.2) (human); test: cell-based or functional assay

| Binder | ADCC EC50, CHO-18.2 target cells (mouse FcγRIV reporter bioluminescence) [nM] |
| --- | --- |
| B1 | 1.17 |
| B2 | 1.51 |
| B3 | 0.77 |
| B4 | 1.42 |
| B5 | 2.39 |
| B6 | 3.52 |
| B7 | 2.26 |
| B8 | 1.25 |
| B9 | 1.1 |

target: human claudin 18 isoform 2 (claudin 18.2) (human); test: cell-based or functional assay; remark: another data set of the same source

| Binder | endocytosis derived cell toxicity EC50, CHO-18.2 cells (anti-IgG Fc-MMAF co-internalization) [nM] |
| --- | --- |
| B10 | 1.36 |
| B11 | 1.39 |
| B12 | 1.07 |
| B13 | 0.95 |
| B14 | 1.61 |

target: human claudin 18 isoform 2 (claudin 18.2) (human); test: cell-based or functional assay; remark: another data set of the same source

| Binder | endocytosis derived cell toxicity EC50, CHO-18.2 cells (anti-IgG Fc-MMAF co-internalization) [nM] |
| --- | --- |
| B1 | 2.16 |
| B2 | 1.31 |
| B3 | 1.61 |
| B4 | 1 |
| B5 | 1.55 |
| B6 | 1.65 |
| B7 | 2.01 |
| B8 | 0.85 |
| B9 | 0.85 |

target: T1, human claudin 18 isoform 1 (claudin 18.1) (human, UniProt P56856 1-261); test: imaging, CHO-CLDN18.1 cells, single concentration (FIG. 3A)
T1 construct: Recombinant on transfected CHO cells (CHO-CLDN18.1); also called CLDN18.1
T1 sequence (P56856 whole entry, canonical isoform): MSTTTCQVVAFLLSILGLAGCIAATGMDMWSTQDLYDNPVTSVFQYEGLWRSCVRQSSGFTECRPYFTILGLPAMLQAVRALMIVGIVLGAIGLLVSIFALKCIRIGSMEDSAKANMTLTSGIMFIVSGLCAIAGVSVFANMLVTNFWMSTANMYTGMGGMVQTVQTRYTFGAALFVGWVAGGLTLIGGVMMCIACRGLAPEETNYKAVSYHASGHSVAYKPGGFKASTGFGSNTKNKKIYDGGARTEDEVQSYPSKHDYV
Procedure: (§1) The specific cellular binding affinity of anti-Claudin18.2 antibodies was tested on CHO-CLDN18.2 (transfected CHO cell expressing recombinant human CLDN18.2) and CHO-CLDN18.1 (transfected CHO cell expressing recombinant human CLDN18.1) cells. The cells were plated in complete media containing F12 with 10% FBS, then incubated overnight at 37° C., anti-Claudin18.2 antibodies were serial diluted and added to the assay plates, incubated at 4° C. for 2 hours, followed by fixing cells and further staining the cells for 30 minutes with Alexa Fluor® 488 Goat Anti-Human IgG (H+L) secondary antibody, invitrogen Cat #A-11013 for detection. The binding was assessed by imaging the cells and quantifying the fluorescence intensity using a Biotek Cytation.

| Binder | binding result |
| --- | --- |
| B10 | no binding (tested: 10 µg/ml) |
| B11 | no binding (tested: 10 µg/ml) |
| B12 | no binding (tested: 10 µg/ml) |
| B13 | no binding (tested: 10 µg/ml) |
| B14 | no binding (tested: 10 µg/ml) |

target: T2, human claudin 18 isoform 2 (claudin 18.2) (human); test: immunofluorescence imaging, CHO-CLDN18.2 cells, serial dilution
T2 construct: Recombinant on transfected CHO cells (CHO-CLDN18.2) or endogenous on tumor cell lines PATU8988S, NUGC-4, KATOIII; the cell line is named under assay; also called CLDN18.2
Procedure: as §1

| Binder | EC50 [nM] |
| --- | --- |
| B1 | 5.6 |
| B2 | 17 |
| B10 | 2.3 |
| B11 | 1.3 |
| B12 | 1.3 |
| B13 | 1.5 |
| B3 | 3.6 |
| B4 | 3.7 |
| B5 | 5.2 |
| B14 | 2.6 |
| B6 | 1 |
| B7 | 1.2 |
| B8 | 1.5 |
| B9 | 1.1 |

target: T2, human claudin 18 isoform 2 (claudin …); test: imaging, PATU8988S cells (endogenous CLDN18.2); ++++ = EC50 less than 2 nM
Procedure: (§2) Tumor cells were plated in complete media containing RPMI1640 with +10% FBS, then incubated overnight at 37° C., Claudin18.2 antibodies were serial diluted and added to the assay plates, incubated at 4° C. for 2 hours, followed by fixing cells and further staining the cells for 30 minutes with Alexa Fluor® 488 Goat Anti-Human IgG (H+L) secondary antibody (invitrogen Cat #A-11013) for detection. The binding was assessed by imaging the cells and quantifying the fluorescence intensity using a Biotek Cytation.

| Binder | EC50 [nM] |
| --- | --- |
| B6 | < 2 |
| B7 | < 2 |
| B8 | < 2 |
| B9 | < 2 |

target: T2, human claudin 18 isoform 2 (claudin …); test: imaging, PATU8988S cells (endogenous CLDN18.2); +++ = EC50 between 2 nM and 20 nM

| Binder | EC50 [nM] |
| --- | --- |
| B10 | 2 to 20 |
| B11 | 2 to 20 |
| B12 | 2 to 20 |
| B13 | 2 to 20 |
| B14 | 2 to 20 |

target: T2, human claudin 18 isoform 2 (claudin …); test: imaging, PATU8988S cells (endogenous CLDN18.2); ++ = EC50 between 20 nM and 100 nM
Procedure: as §2

| Binder | EC50 [nM] |
| --- | --- |
| B1 | 20 to 100 |
| B2 | 20 to 100 |
| B3 | 20 to 100 |
| B4 | 20 to 100 |
| B5 | 20 to 100 |

target: T1, human claudin 18 isoform 1 (claudin …); test: immunofluorescence imaging on CHO cells expressing human CLDN18.1, antibody at 10 µg/ml
Procedure: as §1

| Binder | binding result |
| --- | --- |
| B3 | no binding (tested: 10 µg/ml) |
| B5 | no binding (tested: 10 µg/ml) |
| B6 | no binding (tested: 10 µg/ml) |
| B7 | no binding (tested: 10 µg/ml) |
| B8 | no binding (tested: 10 µg/ml) |
| B9 | no binding (tested: 10 µg/ml) |
